Measured values from patent US20060257938A1, “Method of screening for drugs that block ligand binding to a lipid binding protein” (priority 2005, published 2006).
Changes are numbered by the printed parent chain.

B1: 18V 31Y 55I 73G 72A (protein, listed as Rattus norvegicus)
chain: AFDGTWKVDRNENYEKFVEKMGINVVKRKLYAHDNLKLTITQEGNKFTVKESSNIRNIDVVFELGVDFAYSAGDGTELTGTWTMEGNKLVGKFKRVDNGKELIAVREISGNELIQTYTYEGVEAKRIFKKE
modifications: PEPTIDE (1)...(131) wild-type rat intestinal fatty acid binding protein
B2: 18V 31Y 73V 72A (protein, listed as Rattus norvegicus)
chain: B1 chain with I55F, G73V
modifications: PEPTIDE (1)...(131) wild-type rat intestinal fatty acid binding protein
B3: 18L 73F 117G 72A (protein, listed as Rattus norvegicus)
chain: B1 chain with V18L, Y31G, I55F, G73F, Y117G
modifications: PEPTIDE (1)...(131) wild-type rat intestinal fatty acid binding protein
B4: 14L 18L 31W 73W 117L 72A (protein, listed as Rattus norvegicus)
chain: B1 chain with Y14L, V18L, Y31W, I55F, G73W, Y117L
modifications: PEPTIDE (1)...(131) wild-type rat intestinal fatty acid binding protein
B5: 14Q 18S 73I 117W 72A (protein, listed as Rattus norvegicus)
chain: B1 chain with Y14Q, V18S, Y31G, I55F, G73I, Y117W
modifications: PEPTIDE (1)...(131) wild-type rat intestinal fatty acid binding protein
B6: 18V 31Y 73I 72A (protein, listed as Rattus norvegicus)
chain: B1 chain with I55F, G73I
modifications: PEPTIDE (1)...(131) wild-type rat intestinal fatty acid binding protein
B7: 38A 106V 117A 72A (protein, listed as Rattus norvegicus)
chain: B1 chain with V18M, Y31G, L38A, I55F, G73A, R106V, Y117A
modifications: PEPTIDE (1)...(131) wild-type rat intestinal fatty acid binding protein
B8: 38Q 62I 106I 117A 72A (protein, listed as Rattus norvegicus)
chain: B1 chain with V18M, Y31G, L38Q, I55F, F62I, G73A, R106I, Y117A
modifications: PEPTIDE (1)...(131) wild-type rat intestinal fatty acid binding protein
B9: 104T 115A 74F 72A (protein, listed as Rattus norvegicus)
chain: B1 chain with V18M, Y31G, I55F, G73A, D74F, A104T, Q115A
modifications: PEPTIDE (1)...(131) wild-type rat intestinal fatty acid binding protein
B10: 18G 31F 73L 72A (protein, listed as Rattus norvegicus)
chain: B1 chain with V18G, Y31F, I55F, G73L
modifications: PEPTIDE (1)...(131) wild-type rat intestinal fatty acid binding protein
B11: 14A 18Y 31W 73G 117V 72A (protein, listed as Rattus norvegicus)
chain: B1 chain with Y14A, V18Y, Y31W, I55F, Y117V
modifications: PEPTIDE (1)...(131) wild-type rat intestinal fatty acid binding protein
B12: 18I 31F 73V 72A (protein, listed as Rattus norvegicus)
chain: B1 chain with V18I, Y31F, I55F, G73V
modifications: PEPTIDE (1)...(131) wild-type rat intestinal fatty acid binding protein
B13: 18I 31Y 73I 72A (protein, listed as Rattus norvegicus)
chain: B1 chain with V18I, I55F, G73I
modifications: PEPTIDE (1)...(131) wild-type rat intestinal fatty acid binding protein
B14: 38M 104S 115A 74F 72A (protein, listed as Rattus norvegicus)
chain: B1 chain with V18M, Y31G, L38M, I55F, G73A, D74F, A104S, Q115A
modifications: PEPTIDE (1)...(131) wild-type rat intestinal fatty acid binding protein
B15: 78F 102I 72A (protein, listed as Rattus norvegicus)
chain: B1 chain with V18M, Y31G, I55F, G73A, L78F, L102I
modifications: PEPTIDE (1)...(131) wild-type rat intestinal fatty acid binding protein
B16: 18V 31I 55L 73V 72A (protein, listed as Rattus norvegicus)
chain: B1 chain with Y31I, I55L, G73V
modifications: PEPTIDE (1)...(131) wild-type rat intestinal fatty acid binding protein
B17: 14L 18L 31Y 73L 117A 72A (protein, listed as Rattus norvegicus)
chain: B1 chain with Y14L, V18L, I55F, G73L, Y117A
modifications: PEPTIDE (1)...(131) wild-type rat intestinal fatty acid binding protein
B18: 14I 18L 31W 73V 117G 72A (protein, listed as Rattus norvegicus)
chain: B1 chain with Y14I, V18L, Y31W, I55F, G73V, Y117G
modifications: PEPTIDE (1)...(131) wild-type rat intestinal fatty acid binding protein
B19: 14I 18V 31W 73I 117V 72A (protein, listed as Rattus norvegicus)
chain: B1 chain with Y14I, Y31W, I55F, G73I, Y117V
modifications: PEPTIDE (1)...(131) wild-type rat intestinal fatty acid binding protein

assay: Probe fluorescence ratio response to arachidonic acid relative to ADIFAB2; assay type: binding; settings: arachidonic acid; response relative to ADIFAB2
In short: (§1)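 Each fatty acid's response was expressed relative to ADIFAB2, the rI-FABP-L72A probe, as ΔR/ΔRreference. ΔR is the change in the background-corrected two-wavelength intensity ratio R=Fλ1/Fλ2 from its analyte-free baseline R0. Emission was read near about 420-480 nm for unbound and about 495-580 nm for FFA-bound probe.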

Point of comparison: B13, “DR/DR AA” value 2.487. Against it:
- B1 — lower, 1.007
- B2 — lower, 2.400
- B3 — lower, 2.445
- B4 — lower, 1.772
- B5 — lower, 0.878
- B6 — lower, 1.946
- B7 — lower, 1.492
- B8 — lower, 1.656
- B9 — higher, 2.635
- B10 — lower, 1.785
- B11 — lower, 0.365
- B12 — higher, 2.649
- B14 — lower, 1.690
- B15 — lower, 2.093
- B16 — lower, 2.273
- B17 — higher, 2.987
- B18 — lower, 2.037
- B19 — lower, 1.553

assay: Probe fluorescence ratio response to linolenic acid relative to ADIFAB2; assay type: binding; settings: response relative to ADIFAB2
In short: as §1

Point of comparison: B10, “DR/DR LNA” value 1.235. Against it:
- B1 — lower, 1.228
- B2 — higher, 2.605
- B3 — higher, 1.913
- B4 — higher, 1.640
- B5 — lower, 0.894
- B6 — higher, 2.537
- B7 — lower, 0.541
- B8 — lower, 0.930
- B9 — higher, 2.206
- B11 — lower, 0.940
- B12 — higher, 2.738
- B13 — higher, 2.865
- B14 — higher, 1.615
- B15 — higher, 2.322
- B16 — higher, 2.433
- B17 — higher, 2.818
- B18 — higher, 1.960
- B19 — higher, 1.495

assay: Probe fluorescence ratio response to palmitic acid relative to ADIFAB2; assay type: binding; settings: response relative to ADIFAB2
In short: as §1

Point of comparison: B1, “DR/DR PA” value 0.780. Against it:
- B2 — higher, 1.534
- B3 — higher, 1.039
- B4 — higher, 0.970
- B5 — lower, 0.559
- B6 — higher, 1.784
- B7 — lower, 0.033
- B8 — lower, 0.550
- B9 — lower, 0.720
- B10 — higher, 1.025
- B11 — lower, 0.421
- B12 — higher, 1.893
- B13 — higher, 1.825
- B14 — lower, 0.498
- B15 — higher, 1.434
- B16 — higher, 1.253
- B17 — higher, 1.444
- B18 — higher, 1.236
- B19 — lower, 0.652

assay: Probe fluorescence ratio response to oleic acid relative to ADIFAB2; assay type: binding; settings: response relative to ADIFAB2
In short: as §1

Point of comparison: B14, “DR/DR OA” value 1.155. Against it:
- B1 — lower, 0.994
- B2 — higher, 2.349
- B3 — higher, 1.908
- B4 — lower, 1.085
- B5 — lower, 0.809
- B6 — higher, 2.007
- B7 — lower, 0.368
- B8 — higher, 1.167
- B9 — higher, 1.621
- B10 — higher, 1.365
- B11 — lower, 0.518
- B12 — higher, 2.257
- B13 — higher, 2.322
- B15 — higher, 2.506
- B16 — higher, 2.254
- B17 — higher, 1.908
- B18 — higher, 1.756
- B19 — lower, 0.887

assay: Probe fluorescence ratio response to palmitoleic acid relative to ADIFAB2; assay type: binding; settings: response relative to ADIFAB2
In short: as §1

Point of comparison: B2, “DR/DR POA” value 2.376. Against it:
- B1 — lower, 1.106
- B3 — lower, 1.731
- B4 — lower, 2.059
- B5 — lower, 0.834
- B6 — higher, 2.528
- B7 — lower, 0.121
- B8 — lower, 0.473
- B9 — lower, 1.661
- B10 — lower, 1.235
- B11 — lower, 0.883
- B12 — higher, 2.665
- B13 — higher, 2.620
- B14 — lower, 1.172
- B15 — lower, 2.022
- B16 — lower, 2.285
- B17 — lower, 2.317
- B18 — lower, 1.770
- B19 — lower, 1.411

assay: Probe fluorescence ratio response to stearic acid relative to ADIFAB2; assay type: binding; settings: response relative to ADIFAB2
In short: as §1

Point of comparison: B9, “DR/DR SA” value 0.877. Against it:
- B1 — lower, −0.094
- B2 — higher, 1.330
- B3 — lower, 0.663
- B4 — lower, 0.294
- B5 — lower, −0.044
- B6 — higher, 1.139
- B7 — lower, 0.065
- B8 — lower, 0.663
- B10 — higher, 1.690
- B11 — lower, 0.158
- B12 — higher, 1.294
- B13 — higher, 1.310
- B14 — lower, 0.356
- B15 — higher, 1.877
- B16 — higher, 1.233
- B17 — lower, 0.762
- B18 — lower, 0.606
- B19 — lower, 0.283

assay: Probe fluorescence ratio response to linoleic acid relative to ADIFAB2; assay type: binding; settings: response relative to ADIFAB2
In short: as §1

Point of comparison: B12, “DR/DR LA” value 3.096. Against it:
- B1 — lower, 1.220
- B2 — lower, 2.780
- B3 — lower, 2.283
- B4 — lower, 1.782
- B5 — lower, 0.784
- B6 — lower, 2.619
- B7 — lower, 0.229
- B8 — lower, 1.288
- B9 — lower, 2.231
- B10 — lower, 1.520
- B11 — lower, 1.018
- B13 — lower, 3.031
- B14 — lower, 1.778
- B15 — lower, 2.493
- B16 — lower, 2.680
- B17 — lower, 2.948
- B18 — lower, 2.047
- B19 — lower, 1.668
